Reference: US20260183411A1, “TARGETING SORTILIN” (priority 2024, published 2026)
Where no end group is shown, it is not given here. [ ]: non-standard residue; d: D form. Cba = N[C@@H](CC1CCC1)C(=O)O; Tle = CC(C)(C)[C@H](N)C(=O)O

What was measured:
[1] = Maximum tolerated dose (MTD) study; assay type: in vivo, mouse; details: 10 mg/kg i.v. single dose
Description: BALB/c Nude mice, female, 6-8 weeks, weighing approximately 18-22 g were purchased from the Shanghai SLAC Laboratory Animal Co., LTD. MTD studies were conducted at WuXi AppTec and the care and use of animals was conducted in accordance with the regulations of the Association for Assessment and Accreditation of Laboratory Animal Care (AAALAC). Two MTD studies were performed (a) a low dose study with doses ranging from 0.1, 0.5, 1 and 3 mg/kg and (b) a high dose study with doses ranging from 3, 5, 10 mg/kg. Dosing volume was determined based on body weight (10 ul/g) and PDCs were dissolved in 25 mM Histidine 10% sucrose pH 7 and administered i.v. at a single dose at day 0. The treatment and observation were conducted up to 7 days and MTD was defined by ≥20% body weight loss. Body weights were measured daily, death and observed clinical signs were recorded.
Doses of 3, 5, and 10 mg/kg were administered. MTD was defined by ≥20% body weight loss and body weight measured daily.

[2] = target: T1, SORT1 on cells (HEK293 cells transiently transfected with / overexpressing SORT1); SORT1-expressing MDA-MB-231 … (UniProt Q99523 78-831, limits assumed); experiment: cell-based or functional assay
T1 sequence (looked up): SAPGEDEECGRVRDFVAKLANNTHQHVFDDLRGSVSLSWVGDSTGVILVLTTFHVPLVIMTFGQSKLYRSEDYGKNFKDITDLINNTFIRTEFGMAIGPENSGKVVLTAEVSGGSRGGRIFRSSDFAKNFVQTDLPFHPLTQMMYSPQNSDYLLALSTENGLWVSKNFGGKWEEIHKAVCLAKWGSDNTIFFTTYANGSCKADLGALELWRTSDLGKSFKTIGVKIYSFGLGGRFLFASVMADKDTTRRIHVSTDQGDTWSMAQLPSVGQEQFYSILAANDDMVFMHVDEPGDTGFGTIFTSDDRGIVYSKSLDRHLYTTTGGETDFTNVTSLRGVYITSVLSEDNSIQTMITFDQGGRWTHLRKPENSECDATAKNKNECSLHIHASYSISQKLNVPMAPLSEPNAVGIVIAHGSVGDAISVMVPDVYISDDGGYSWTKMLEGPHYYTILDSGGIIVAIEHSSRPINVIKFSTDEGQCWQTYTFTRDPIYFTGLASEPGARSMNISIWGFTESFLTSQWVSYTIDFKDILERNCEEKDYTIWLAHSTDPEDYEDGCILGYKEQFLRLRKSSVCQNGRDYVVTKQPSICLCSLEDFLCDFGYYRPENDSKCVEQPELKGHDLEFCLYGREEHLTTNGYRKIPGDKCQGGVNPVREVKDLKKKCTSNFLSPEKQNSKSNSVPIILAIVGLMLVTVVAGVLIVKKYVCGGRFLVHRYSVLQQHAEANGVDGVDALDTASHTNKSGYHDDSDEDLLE

cyno SORT1 (76-753)-His = target: T2, cyno SORT1 (76-753)-His (cyno, UniProt A0A2K5VHG2 74-751); experiment: SPR (Biacore 8K), SORT1 on CM5 chip, siRNA-peptide conjugate as analyte, 1:1 model
T2 construct: range 76-753; Amine-coupled to CM5 chip for SPR
T2 sequence: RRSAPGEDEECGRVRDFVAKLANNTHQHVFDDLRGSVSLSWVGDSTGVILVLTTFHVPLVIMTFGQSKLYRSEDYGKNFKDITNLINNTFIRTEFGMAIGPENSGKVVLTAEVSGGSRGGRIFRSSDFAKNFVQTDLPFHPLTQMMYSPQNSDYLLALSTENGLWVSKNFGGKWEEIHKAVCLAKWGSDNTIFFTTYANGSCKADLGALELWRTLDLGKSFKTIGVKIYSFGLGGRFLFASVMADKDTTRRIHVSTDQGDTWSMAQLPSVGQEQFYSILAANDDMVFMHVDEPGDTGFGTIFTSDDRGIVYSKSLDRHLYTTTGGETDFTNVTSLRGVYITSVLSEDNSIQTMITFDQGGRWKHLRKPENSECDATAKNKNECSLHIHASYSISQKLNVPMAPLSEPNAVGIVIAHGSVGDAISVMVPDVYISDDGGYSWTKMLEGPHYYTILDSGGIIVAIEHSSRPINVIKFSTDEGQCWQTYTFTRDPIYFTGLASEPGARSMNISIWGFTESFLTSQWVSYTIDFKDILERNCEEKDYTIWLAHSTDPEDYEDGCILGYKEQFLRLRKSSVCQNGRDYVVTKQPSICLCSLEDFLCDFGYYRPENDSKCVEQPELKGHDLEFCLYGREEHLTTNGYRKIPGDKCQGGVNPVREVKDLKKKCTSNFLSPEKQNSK
Description: (§1) SPR analysis was performed on Series S CM5 chips (Cytiva) using a Biacore 8K instrument (Cytiva). Sensorgrams were double-referenced by subtracting the response on both a reference flow cell and a blank sample. Human SORT1 (78-755)-His (Acrobiosystems), human SORT1 (78-755)-His(GenScript), mouse SORT1 (76-753)-His (R&D Systems), rat SORT1 (76-752)-His (GenScript), and cyno SORT1 (76-753)-His (GenScript) were diluted to 20-60 μg/mL in 10 mM sodium acetate pH 4.5 buffer and immobilized onto Series S CM5 chips using amine coupling at a flow rate of 10 μL/min for 45-100 s.
(§2) Ten start-up cycles and a blank cycle preceded each analysis run. The runs were performed by sequential injections of analyte (0-20 nM, 3-fold serial dilutions) with a 90 s association and 900 s dissociation at a flow rate of 30 μL/min, followed by two regeneration cycles with 2 M MgCl2 for 90 s at a flow rate of 10 μL/min. […] Five start-up cycles and a blank cycle preceded each analysis run. The runs were performed by sequential injections of analyte (0-25 nM) with a 150 seconds (s) association and 300 s dissociation at a flow rate of 30 μL/min, followed by a regeneration with 2 M MgCl₂ for 200 s at a flow rate of 10 μL/min. The kinetic rate constants (kₐ and kd) and the equilibrium binding constant (Kd) were calculated using a 1:1 kinetic binding model on the Biacore Insight Evaluation Software (Cytiva).
(§3) SPR analysis was performed on Series S CM5 chips (Cytiva) using a Biacore 8K instrument (Cytiva). Sensorgrams were double-referenced by subtracting the response on both a reference flow cell and a blank sample. The SPR analysis was conducted using four different SORT1 species: Human SORT1, Mouse SORT1, Rat SORT1, and Cyno SORT1. The samples were prepared according to the general procedure described above herein. The kinetic rate constants (ka and […]) and the equilibrium binding constant (Kd) were calculated using a 1:1 kinetic binding model on the Biacore Insight Evaluation Software (Cytiva).

mouse SORT1 (76-753)-His = target: T3, mouse SORT1 (76-753)-His (mouse, UniProt Q6PHU5 76-753); experiment: as above
T3 construct: range 76-753; Amine-coupled to CM5 chip for SPR
T3 sequence (looked up): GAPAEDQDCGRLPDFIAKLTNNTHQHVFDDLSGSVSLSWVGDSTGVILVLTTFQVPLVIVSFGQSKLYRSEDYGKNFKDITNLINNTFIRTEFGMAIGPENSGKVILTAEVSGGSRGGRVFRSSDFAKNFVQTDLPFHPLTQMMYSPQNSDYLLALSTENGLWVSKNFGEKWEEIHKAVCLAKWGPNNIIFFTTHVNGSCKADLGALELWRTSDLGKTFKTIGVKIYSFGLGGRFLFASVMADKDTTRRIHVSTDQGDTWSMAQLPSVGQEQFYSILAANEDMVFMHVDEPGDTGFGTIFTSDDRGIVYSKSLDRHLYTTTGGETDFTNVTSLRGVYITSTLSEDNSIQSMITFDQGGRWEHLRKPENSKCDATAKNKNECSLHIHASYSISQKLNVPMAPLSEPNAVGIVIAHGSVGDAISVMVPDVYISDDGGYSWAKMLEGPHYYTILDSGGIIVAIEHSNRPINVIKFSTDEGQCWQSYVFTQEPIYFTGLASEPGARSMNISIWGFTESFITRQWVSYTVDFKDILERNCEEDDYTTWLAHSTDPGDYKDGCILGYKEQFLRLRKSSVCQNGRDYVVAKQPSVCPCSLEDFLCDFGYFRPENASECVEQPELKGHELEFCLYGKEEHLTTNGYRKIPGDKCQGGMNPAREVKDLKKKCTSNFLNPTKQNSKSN
Description: as §1, §2, §3

rat SORT1 (76-752)-His = target: T4, rat SORT1 (76-752)-His (rat, UniProt O54861 76-752); experiment: as above
T4 construct: range 76-752; Amine-coupled to CM5 chip for SPR
T4 sequence (looked up): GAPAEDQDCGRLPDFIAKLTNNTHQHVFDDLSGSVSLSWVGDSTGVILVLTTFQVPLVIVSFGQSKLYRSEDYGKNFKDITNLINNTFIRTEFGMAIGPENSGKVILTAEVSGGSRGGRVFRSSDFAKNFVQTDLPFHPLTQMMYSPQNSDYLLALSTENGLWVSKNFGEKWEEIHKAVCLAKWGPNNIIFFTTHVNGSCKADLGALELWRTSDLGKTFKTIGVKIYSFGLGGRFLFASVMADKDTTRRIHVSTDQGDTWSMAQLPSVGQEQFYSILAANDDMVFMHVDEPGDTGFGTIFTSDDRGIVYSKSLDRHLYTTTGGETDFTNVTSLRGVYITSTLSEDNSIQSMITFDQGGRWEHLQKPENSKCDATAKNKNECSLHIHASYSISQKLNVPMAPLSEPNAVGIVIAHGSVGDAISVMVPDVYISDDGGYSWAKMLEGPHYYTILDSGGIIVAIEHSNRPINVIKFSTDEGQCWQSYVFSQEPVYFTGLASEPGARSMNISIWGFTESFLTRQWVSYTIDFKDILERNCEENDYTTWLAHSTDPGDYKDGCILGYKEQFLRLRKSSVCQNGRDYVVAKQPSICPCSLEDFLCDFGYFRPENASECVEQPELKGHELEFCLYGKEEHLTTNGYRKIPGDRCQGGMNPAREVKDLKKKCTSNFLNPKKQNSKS
Description: as §1, §2, §3

For `CC[C@H](C)[C@@H]([C@@H](CC(=O)N1CCC[C@H]1[C@H](OC)[C@@H](C)C(=O)N[C@H](C)[C@@H](O)c1ccccc1)OC)N(C)C(=O)[C@@H](NC(=O)[C@H](C(C)C)N(C)C(=O)OCc1ccc(NC(=O)[C@H](CCCNC(N)=O)NC(=O)[C@@H](NC(=O)CCCC(=O)NCCC(=O)N(C)CC(=O)N(C)CC(=O)N(C)CC(=O)N(C)CC(=O)N[C@@H](CC(=O)O)C(=O)N[C@@H](CC(=O)O)C(=O)N2CCC[C@H]2C(=O)N[C@@H](CCCNC(=N)N)C(=O)N[C@@H](C)C(=O)N2CCC[C@H]2C(=O)N[C@@H](Cc2c[nH]c3ccccc23)C(=O)N2CCC[C@H]2C(=O)N[C@@H](C)C(=O)N[C@@H](CC(C)C)C(=O)N[C@@H](CCC(N)=O)C(=O)N[C@@H](CCCNC(=N)N)C(=O)N[C@@H](CC(C)C)C(=O)N[C@@H](C)C(=O)N[C@@H](CC(C)C)C(=O)N[C@@H](CCCNC(=N)N)C(=O)N[C@@H](CC(C)C)C(=O)O)C(C)C)cc1)C(C)C` [PRGN_RL_PDC], the toxicity [1] was “mild toxicity”.

B1: Peptide 2-GAPDH6-SPDP (peptide)
peptide: CXXXXXAPRWDAPLRDPALRQXX
modifications: N-terminal Ac; Cys 1 side chain in a disulphide with SPDP on the 5' end of the sense strand of GAPDH siRNA; 2: (bAla); 3-6: (Sar); 22: (B13); 23: (G48)
In the case of B1, the “GAPDH mRNA % knockdown compared to untreated cells (RT-qPCR), HEK293 + SORT1 - CQ” value (shortened to “GAPDH mRNA % knockdown”) [2] is reported as 36%.

B2: SORT1 peptide 1 conjugate (peptide)
peptide: APRWDAPLRDPALRQLL
modifications: also: conjugated to siRNA, linker and handle not given here
notes: also called SORT1 peptide 1 siRNA conjugate
Work on B2 yielded a Kd (cyno SORT1 (76-753)-His) of 0.0168 µM, a Kd (mouse SORT1 (76-753)-His) of 0.0302 µM and a Kd (rat SORT1 (76-752)-His) of 0.0492 µM.

B3: SORT1 peptide 2 conjugate (peptide)
peptide: APRWDAPLRDPALRQ[Tle][Cba]
modifications: also: conjugated to siRNA targeting a housekeeping gene mRNA, linker and handle not given here
notes: also called SORT1 peptide 2 siRNA conjugate; Arb-SAR-Q15_PDC2
B3 gave a Kd (cyno SORT1 (76-753)-His) of 0.00481 µM, a Kd (mouse SORT1 (76-753)-His) of 0.00856 µM and a Kd (rat SORT1 (76-752)-His) of 0.0146 µM.

B4: Peptide 2-GAPDH6-thiol (peptide)
peptide: XXXXXAPRWDAPLRDPALRQXX
modifications: not fully specified; N-terminal maleimide joined by a thioether to 6-mercaptohexanoic acid on the 5' end of the sense strand of GAPDH siRNA; 1: (bAla); 2-5: (Sar); 21: (B13); 22: (G48)
For B4, the “GAPDH mRNA % knockdown” value [2] was 40%.

B5: Peptide 2-GAPDH6-BCN (peptide)
peptide: XXXXXXAPRWDAPLRDPALRQXX
modifications: N-terminal 6-azidohexanoic acid joined by a triazole to hexyl-BCN on the 5' end of the sense strand of GAPDH siRNA; 1: (bAla); 2-5: (Sar); 21: (B13); 22: (G48)
For B5, the “GAPDH mRNA % knockdown” value [2] was 47%.
